For this experiment, the target named is His-tagged eukaryotic initiation factor 6 (eIF6), full length recombinant (UniProt P56537). Kind of experiment: AlphaScreen or HTRF; competition: serial dilution of non-biotinylated 60S against the optimised assay (eIF6 75 nM, 60S-Bio 0.5 nM); PBS pH 7.4, 5 mM MgCl2, 0.2% BSA, 0.02% Tween-20; room temperature; normalised between 100% displacement (no eIF6) and 0% displacement. Background: Bead proximity is the source of the signal in Alpha formats.

By IC50 is commonly meant the concentration that inhibits the measured activity by half. Turning to “non-biotinylated 60S ribosomal subunit (complex)”, the concentration for half-maximal inhibition (IC50) was 0.28 nM.

For the origin of these results see PMC7017188.
